From patent US20120231006A1 (Amgen, published 2012) come the findings set out here.

The Kd is the free concentration of one partner at which half of the binding sites on the other are occupied at equilibrium, for simple one-to-one binding.

Assay [1] deals with T1, human Orai1 (human, UniProt Q96D31 1-301).
T1 construct: on AM1-CHO/hOrai1/hSTIM1-YFP, AM1/hOrai1, HEK-293 transfectants, endogenous on Jurkat and blood cells; in Westerns from cell lysates; also called hOrai1; CRACM1
The assay is described as follows: KinExA, AM1-CHO/hOrai1/hSTIM1-YFP cells. As to the method:
Each equilibrium sample set was read in triplicate on the KinExA machine. For low [Ab] equilibrium samples 4 mL was run of each sample in triplicate. For high [Ab] equilibrium samples 300 μL was run of each sample in triplicate. […] For each equilibrium sample the free [Ab] would be detected by first running the coated beads through the flow cell, then after quick wash with the running buffer (1×PBS pH7.4+1% BSA+0.05% Sodium Azide) the equilibrium samples were passed through the beads followed by a quick wash with the running buffer. Then the secondary detection Ab, Gt anti Hu (H+ L) Cy5, was run through the flow cell at 1 μg/mL and 1000 μL per run. The KinExA voltage output signal was then used in KinExA software to calculate the Kd values for each antibody. From the plots at two different initial total [Ab] concentrations the Kd was obtained from curve fitting using n-curve analysis in KinExA Pro software (Sapidyne Instruments Inc., Boise Id.).
(Kinetic exclusion samples the free partner from a solution-phase mixture.)

The target in assay [2] is T1, human Orai1. The assay is described as follows: FACS Kd, AM1-CHO/hOrai1/hSTIM1-YFP cells. As to the method: The equilibrium plates were centrifuged at 500 g for 3 minutes and cell pellets were washed twice with 200 μL of ice cold FACS buffer (1×D-PBS+2% FBS). The cells were then incubated with a secondary antibody, goat anti-human Fc Cy5 at 5 μg/mL and 100 μL per well for 1 h on ice in the dark. Following the incubation, the cells were washed twice with 200 μL of ice-cold FACS buffer before flow cytometry analysis. The GeoMean values gated on live cell population measure the bound [Ab]. The inverse of the GeoMean values that reflects theoretical free [Ag] in the equilibrium solution was then calculated. The inverse values of the GeoMean read were used in KinExA® Pro software for analysis and Kd calculation for each antibody. The free [Ag] measure was plotted against the starting concentration of titrating component and from these plots at two different cell concentrations the Kd was obtained from curve fitting using n-curve analysis in KinExA Pro software. […] Shown in Table 14 (below) are the equilibrium dissociation constant (Kd) values of invented mAbs determined by FACS Kd measurement.

The target of assay [3] is T2, mOrai1-hOrai1 ECL2 (…) protein (human/mouse chimera, UniProt Q8BWG9 1-304 (mouse entry)).
T2 construct: also called Ch
As to the kind of experiment: flow cytometry on HEK-293 cells transfected with the chimera (loss of binding experiment). (In general: In flow cytometry, cells or beads pass a laser one at a time.)
T2 sequence (Q8BWG9 other isoform, or with tags, fused parts or gaps): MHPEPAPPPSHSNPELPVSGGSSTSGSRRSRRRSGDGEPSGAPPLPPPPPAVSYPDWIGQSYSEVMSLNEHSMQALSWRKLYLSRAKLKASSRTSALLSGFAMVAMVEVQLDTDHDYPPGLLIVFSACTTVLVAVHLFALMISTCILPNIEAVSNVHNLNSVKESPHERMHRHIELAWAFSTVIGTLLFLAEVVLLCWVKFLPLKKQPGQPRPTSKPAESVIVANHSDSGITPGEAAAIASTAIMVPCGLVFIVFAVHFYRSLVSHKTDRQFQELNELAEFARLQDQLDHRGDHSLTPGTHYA

The target in assay [4] is T3, mOrai1-hOrai1 ECL2 (…) protein (human/mouse chimera, UniProt Q8BWG9 1-304 (mouse entry)).
T3 construct: also called Ch
The assay is described as above. The source holds these as a separate data set.
T3 sequence (Q8BWG9 other isoform, or with tags, fused parts or gaps): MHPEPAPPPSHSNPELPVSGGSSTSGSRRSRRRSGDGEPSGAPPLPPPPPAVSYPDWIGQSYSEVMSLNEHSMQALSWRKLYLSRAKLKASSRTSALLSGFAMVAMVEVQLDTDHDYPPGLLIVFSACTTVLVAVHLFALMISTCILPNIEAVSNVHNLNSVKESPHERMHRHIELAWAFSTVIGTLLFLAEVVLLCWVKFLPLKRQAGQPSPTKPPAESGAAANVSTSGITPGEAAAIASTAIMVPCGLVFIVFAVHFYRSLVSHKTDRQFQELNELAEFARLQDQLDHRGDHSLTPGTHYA

Assay [5] addresses T4, mOrai1-hOrai1 ECL2 (KPPAE) protein (human/mouse chimera, UniProt Q8BWG9 1-304 (mouse entry)).
T4 construct: also called Ch
Described as above.

For assay [6], the target named is T5, mOrai1-hOrai1 ECL2 (…) protein (human/mouse chimera, UniProt Q8BWG9 1-304 (mouse entry)).
T5 construct: also called Ch
The assay is described as above. The source holds these as a separate data set.
T5 sequence (Q8BWG9 other isoform, or with tags, fused parts or gaps): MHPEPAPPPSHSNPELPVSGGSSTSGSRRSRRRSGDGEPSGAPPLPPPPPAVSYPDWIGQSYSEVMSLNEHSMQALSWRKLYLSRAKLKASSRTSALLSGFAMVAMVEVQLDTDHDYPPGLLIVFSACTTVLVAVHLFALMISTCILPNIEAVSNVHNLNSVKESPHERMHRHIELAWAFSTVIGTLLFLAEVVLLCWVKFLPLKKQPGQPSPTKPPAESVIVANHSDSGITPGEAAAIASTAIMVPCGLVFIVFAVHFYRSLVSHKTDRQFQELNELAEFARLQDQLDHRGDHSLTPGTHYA

Assay [7] has as its target T6, mOrai1-hOrai1 ECL2 (…) protein (human/mouse chimera, UniProt Q8BWG9 1-304 (mouse entry)).
T6 construct: also called Ch
The description is as above. The source holds these as a separate data set.
T6 sequence (Q8BWG9 other isoform, or with tags, fused parts or gaps): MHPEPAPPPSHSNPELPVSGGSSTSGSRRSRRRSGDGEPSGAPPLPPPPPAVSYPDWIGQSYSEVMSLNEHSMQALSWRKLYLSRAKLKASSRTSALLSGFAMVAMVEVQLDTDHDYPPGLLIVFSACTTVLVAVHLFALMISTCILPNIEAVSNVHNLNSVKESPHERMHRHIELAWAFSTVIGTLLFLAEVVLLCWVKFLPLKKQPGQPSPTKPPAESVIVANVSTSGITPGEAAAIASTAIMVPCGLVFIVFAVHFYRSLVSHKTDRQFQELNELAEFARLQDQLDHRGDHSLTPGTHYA

For assay [8], the target named is T7, mOrai1-hOrai1 ECL2 (AESVIV) protein (human/mouse chimera, UniProt Q8BWG9 1-304 (mouse entry)).
T7 construct: also called Ch
Described as above.

In assay [9] the target is T8, mOrai1-hOrai1 ECL2 (SPTKPPAE) protein (human/mouse chimera, UniProt Q8BWG9 1-304 (mouse entry)).
T8 construct: also called Ch
Described as above.

Assay [10] deals with T9, hOrai1-mOrai1 ECL2 (SKPPA) protein (human/mouse chimera, UniProt Q96D31 1-301).
T9 construct: also called Ch
As to the kind of experiment: FACS, 293EBNA, RFI-POC grade. Further details: concentration or dose not given beside the values.

For assay [11], the target named is T1, human Orai1. The assay is described as follows: cell-based or functional assay.

Residue numbers refer to the chain shown, from its start.

T4 sequence (Q8BWG9 other isoform, or with tags, fused parts or gaps): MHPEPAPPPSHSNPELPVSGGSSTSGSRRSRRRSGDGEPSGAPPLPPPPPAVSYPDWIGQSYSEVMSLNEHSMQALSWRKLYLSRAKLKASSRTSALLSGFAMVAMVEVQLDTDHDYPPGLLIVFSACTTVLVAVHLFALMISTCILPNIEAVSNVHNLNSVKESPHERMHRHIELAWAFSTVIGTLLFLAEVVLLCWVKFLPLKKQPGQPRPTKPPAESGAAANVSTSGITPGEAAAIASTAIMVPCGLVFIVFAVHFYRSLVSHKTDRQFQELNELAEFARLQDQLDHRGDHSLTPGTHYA
T1 sequence (Q96D31 whole entry): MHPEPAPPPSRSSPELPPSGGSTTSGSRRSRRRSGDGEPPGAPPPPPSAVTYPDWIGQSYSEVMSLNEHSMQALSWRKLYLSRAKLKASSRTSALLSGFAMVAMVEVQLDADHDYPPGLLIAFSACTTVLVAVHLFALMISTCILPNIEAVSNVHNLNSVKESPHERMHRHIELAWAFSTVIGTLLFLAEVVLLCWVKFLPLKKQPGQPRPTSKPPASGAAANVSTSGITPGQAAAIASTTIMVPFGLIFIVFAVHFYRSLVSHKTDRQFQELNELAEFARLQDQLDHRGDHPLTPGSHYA
T8 sequence (Q8BWG9 other isoform, or with tags, fused parts or gaps): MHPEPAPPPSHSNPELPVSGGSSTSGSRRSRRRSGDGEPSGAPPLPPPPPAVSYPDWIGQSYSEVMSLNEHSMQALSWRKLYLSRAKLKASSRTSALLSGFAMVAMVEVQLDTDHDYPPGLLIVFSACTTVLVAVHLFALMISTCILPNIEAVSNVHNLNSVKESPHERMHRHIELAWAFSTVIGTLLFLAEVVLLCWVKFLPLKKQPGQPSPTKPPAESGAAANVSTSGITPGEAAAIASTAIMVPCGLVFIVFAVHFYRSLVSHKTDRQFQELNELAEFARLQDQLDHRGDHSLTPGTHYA
T7 sequence (Q8BWG9 other isoform, or with tags, fused parts or gaps): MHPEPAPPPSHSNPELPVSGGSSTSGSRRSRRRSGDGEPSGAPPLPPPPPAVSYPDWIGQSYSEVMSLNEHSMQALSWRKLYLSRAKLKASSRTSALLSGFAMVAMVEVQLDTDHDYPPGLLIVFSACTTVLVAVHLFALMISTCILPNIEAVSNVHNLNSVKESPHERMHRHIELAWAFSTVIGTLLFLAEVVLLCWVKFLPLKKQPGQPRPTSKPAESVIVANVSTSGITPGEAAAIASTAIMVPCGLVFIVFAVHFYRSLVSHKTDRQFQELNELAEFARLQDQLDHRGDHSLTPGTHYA
T9 sequence (Q96D31 other isoform, or with tags, fused parts or gaps): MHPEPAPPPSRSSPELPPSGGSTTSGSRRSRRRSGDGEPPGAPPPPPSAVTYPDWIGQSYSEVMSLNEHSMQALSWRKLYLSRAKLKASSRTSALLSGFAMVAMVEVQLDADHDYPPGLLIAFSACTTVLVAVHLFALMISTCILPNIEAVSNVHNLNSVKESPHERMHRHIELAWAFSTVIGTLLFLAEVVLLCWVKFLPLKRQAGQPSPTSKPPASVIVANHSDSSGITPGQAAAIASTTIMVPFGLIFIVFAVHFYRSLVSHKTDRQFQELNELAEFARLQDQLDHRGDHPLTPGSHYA

B1: mAb 5F7.1 (antibody, human IgG2, lambda)
heavy: QVQLVQSGAEVKKPGASVKVPCKASGYTFTDYYINWVRQAPGQGLEWMGWINPNNGGTNYAQKFQGRVTMTRDTSISTAYMELRRLRSDDTAVYYCARERGGYEDWFDPWGQGTLVTVSSASTKGPSVFPLAPCSRSTSESTAALGCLVKDYFPEPVTVSWNSGALTSGVHTFPAVLQSSGLYSLSSVVTVPSSNFGTQTYTCNVDHKPSNTKVDKTVERKCCVECPPCPAPPVAGPSVFLFPPKPKDTLMISRTPEVTCVVVDVSHEDPEVQFNWYVDGVEVHNAKTKPREEQFNSTFRVVSVLTVVHQDWLNGKEYKCKVSNKGLPAPIEKTISKTKGQPREPQVYTLPPSREEMTKNQVSLTCLVKGFYPSDIAVEWESNGQPENNYKTTPPMLDSDGSFFLYSKLTVDKSRWQQGNVFSCSVMHEALHNHYTQKSLSLSPGK
light: QSVLTQPPSVSGAPGQRVTISCTGSSSNIGAGFDVHWYQQLPVTAPKLLIYGNRNRPSGVPARFSGSKSGTSASLAITGLQAEDEAVYYCQSYDSSLTVFGGGTKLTVLGQPKANPTVTLFPPSSEELQANKATLVCLISDFYPGAVTVAWKADGSPVKAGVETTKPSKQSNNKYAASSYLSLTPEQWKSHRSYSCQVTHEGSTVEKTVAPTECS
notes: fully human IgG2 lambda, Campaign 2
For B1, the Kd with human Orai1 [1] came to 0.019 nM; with human Orai1 [2] it was 0.185 nM. Also, the binding result in assay [3], in assay [4], in [5], in [6], in assay [7] and in assay [8] was “no binding” each time. The binding result in [9] is listed as “no binding”.

B2: mAb 5A1.1 (antibody, human IgG2)
heavy: B1 heavy
VL: QSVLTQPPSVSGAPGQRVTISCTGSSSNIGAGFDVHWYQQLPVTAPKLLIYGNRNRPSGVPARFSGSKSGTSASLAITGLQAEDEAVYYCQSYDSSLTVFGGGTKLTVL
notes: fully human, Campaign 2; lambda CL-1
Regarding B2, the binding result in [3], in assay [4], in assay [5], in assay [6], in [7] and in assay [8] was “no binding” each time. In addition, the binding result in assay [9] is “no binding”.

B3: mAb 2B4.1 (antibody, human IgG2, lambda, V domains shown)
VH: QVQLVQSGAEVKKPGASVKVSCKASGYTFTDYYMHWVRQAPGQGLEWMGWINPNSGGTNYVQKFQDRVTMTRDTSITTAYMELTRLRSDDTAVYYCAREEGDYGMDVWGQGTTVTVSS
VL: QSVLTQPPSVSGAPGQRVTISCTGSNSNIGTGYDVHWYQKLPGTAPRLLIYSHFNRPSGVPDRFSGSTSGTSASLAITGLQAEDEADYYCQSYDSSLSGSVFGGGTKLTVLG
B3: in assay [10], the “percent of control (POC) of FACS Geo Mean” value lay within 1 to 5%. Besides, the “IC50, NFAT-mediated luciferase assay (FIG. 6C)” value in the assay with human Orai1 [11] is 1800 nM. The affinity in the assay with human Orai1 [2], expressed as Kd, was 1.8 nM. In addition, the binding result in assay [3], in assay [4], in assay [5], in assay [6], in assay [7] and in assay [8] was “no binding” each time. Moreover, the binding result in assay [9] was “no binding”.

B4: mAb 5A4.2 (antibody, human IgG2, lambda, V domains shown)
VH: QVQLVQSGAEVKKPGASVKVSCKASGYTFTDYYMNWVRQAPGQGLEWMGWINPNSGGTKYAQKFQGRVTMTRDTSIRTAYMELSRLRSDDTAVYYCSREYGGNSDWFDPWGQGTLVTVSS
VL: QSVLTQPPSVSGAPGQRVTISCTGSSSNIGAGYDVHWYQQLPGTAPKLLIYGNSNRPSGVPDRFSGSKSGTSASLAITGLQAEDEADYYCQSYDNRLSDSVVIGGGTKLTVQG
notes: as for B1
As for B4, the equilibrium dissociation constant (Kd) in the assay with human Orai1 [2] stood at 1.2 nM. For the same molecule, the binding result in assay [3], in assay [4], in assay [5], in [6], in [7] and in assay [8] was “no binding” throughout. In addition, in assay [9], the binding result is listed as “no binding”.

B5: mAb 5B5.2 (antibody, human IgG2, lambda, V domains shown)
VH: B4 VH with M34I, K59D, S84N, R87T, S97A, N103Y, S104E
VL: QSVLTQPPSVSGAPGQRVTISCTGSNSNIGAGFDVHWYQQLPGTVPKLLIYGNNNRPSGVPDRFSGSKSGTSASLAITGLQAEDEADYYCQSYDSRLTVFGGGTKLTVLG
notes: fully human IgG2 lambda, Campaign 2; same chains as 5B5.1
In the case of B5, the binding result in [3], in assay [4], in [5], in [6], in assay [7] and in [8] was “no binding” throughout. The binding result in assay [9] is “no binding”.

B6: mAb 5B1.1 (antibody, human IgG2, lambda, V domains shown)
VH: B4 VH with M34I, T58S, K59S, R77S, Y80H, S84I, S97A, Y100R, N103I, S104E
VL: QSVLTQPPSVSGAPGQRVTISCTGSSSNIGAGYDVHWYQQLPGTAPKLLIYGNSNRPSGVPDRFSGSKSGTSASLAITKFQAEDEAVYYCQSYGSGLSGVVFGGGTKLTVLG
notes: fully human IgG2 lambda, Campaign 2; also called mAb 5Bl1.1
Regarding B6, the dissociation constant Kd in the assay with human Orai1 [2] is 0.443 nM. Moreover, the binding result in assay [4], in assay [5], in [6], in assay [7] and in assay [9] was “no binding” in each case.

B7: mAb 5C1.1 (antibody, human IgG2, lambda, V domains shown)
VH: B4 VH with S97A
VL: B4 VL with T110A
notes: as for B1
Turning to B7, the binding result in assay [3], in [4], in [5], in [6], in [7] and in assay [8] was “no binding” throughout. The binding result in assay [9] is given as “no binding”.

B8: mAb 5F2.1 (antibody, human IgG2, lambda, V domains shown)
VH: B4 VH with K59H, R77S, S97A, N103Y
VL: B4 VL with S26R, G43R, G52D, T71S, R96S, V102L, Q112L
notes: as for B1
Take B8: the Kd with human Orai1 [2] amounted to 0.767 nM. Further, the binding result in assay [3], in [4], in assay [5], in assay [6], in assay [7] and in [8] was “no binding” in each case. Besides, in [9], the binding result was “no binding”.
